Assays:
MEF5/N9 cells = experiment: TUNEL in situ cell death detection assay of MEF5/N9 clones; assay type: cell-based, mouse; conditions: 10^−8 M 4-OH-tamoxifen
Source text: TUNEL, or terminal deoxynucleotidyl transferase-mediated dUTP nick end-labeling, is acknowledged as a method of choice in the rapid detection of DNA fragmentation that results from apoptotic signaling cascades (Gavrieli et al., J. Cell Biol., 119(3), 493-501 (1992)). Cleavage of genomic DNA during apoptosis may yield double-stranded, low molecular weight DNA fragments as well as single strand breaks (“nicks”) in high molecular weight DNA. Those DNA strand breaks can be identified by terminal deoxynucleotidyl transferase (TdT), which catalyzes polymerization of labeled nucleotides to free 3′-OH DNA ends in a template-independent manner. To detect 4-OH-tamoxifen induced cell death in MEF5/N9 cells, we applied the In Situ Cell Death Detection Kit, POD by Roche according to the manufacturer's instructions. Incorporated fluorescein is detected by anti-fluorescein antibody, conjugated with horse-radish peroxidase (POD). After substrate reaction, stained cells can be analyzed under light microscopy.
Two days prior to the TUNEL staining, round glass cover slips ([…]) were sterilized with 70% EtOH, dried under laminar flow and coated with Poly-L-lysine at a concentration of 50 μg/ml over night at 37° C., which allows a better attachment of cells on the cover slips. The following day, the cover slips were rinsed 3 times with PBS and dried for 1 hour under laminar flow. 2.5·10^5 cells were seeded onto cover slips in a 6-well plate. On the test day, medium was replaced either by fresh medium or medium supplemented with 10^−8 M 4-OH-tamoxifen. […] After fixation, cells were rinsed three times in PBS, covered with 100% methanol and incubated for 10 min or over night in a freezer and rinsed in PBS. Endogenous peroxidase activity was blocked by immersing cover slips for 10 min in 3% H2O2 in methanol prior to cell permeabilization. Cells were subsequently rinsed with PBS and incubated in permeabilization solution (0.1% Triton X-100 in freshly prepared 0.1% sodium citrate) for 2 min on ice. To generate a positive control, DNA strand breaks were induced by incubating permeabilized cells with 2 U/ml DNase I in 50 mM Tris-HCl, pH 7.5, 10 mM MgCl2, 1 mg/ml BSA for 10 min at room temperature, prior to labeling procedure. Cover slips were rinsed twice with PBS before incubating each sample with 25 μl TUNEL reaction mixture for 60 min at 37° C. in a humidified atmosphere in the dark. To avoid evaporative loss, cover slips were covered with parafilm. For a negative control 25 μl of Label solution without enzyme solution were added. Following labeling, cover slips were rinsed 3 times with PBS for 10 min each. To convert the fluorescence signal to a chromogenic signal, 25 μl of the POD solution were added on each sample which was covered with parafilm and incubated in a humidified chamber for 30 min at 37° C. Subsequently, cover slips were rinsed 3 times with PBS and incubated in freshly prepared 0.05% DAB in 0.1 M Tris-HCl (pH 7.4) supplemented with 0.02% H2O2 for 10-20 min at room temperature. The conversion procedure was controlled under a light microscope. The reaction was stopped with PBS until brown precipitates were well visible inside the cells. To remove DAB, cover slips were rinsed several times in PBS. Optionally, nuclear staining was performed by incubating cover slips for 15 min in 2.5 μg/ml DAPI diluted in PBS. Cover slips were mounted with a water-soluble, non-fluorescing mounting medium (Aqua-Poly/Mount; Polysciences Inc., Eppelheim, Germany) under SuperFrost slides (VWR International). Prior to the analysis of the samples under a light microscope, mounting medium was dried for 24 hours at room temperature.
To provide direct evidence for 4-OH-tamoxifen-induced apoptosis in MEF5/N9 clones expressing Caspase-8 or -9 fusion proteins, an in situ application of the TUNEL assay was performed. This method detects DNA fragmentation, one of the late events that result from apoptotic signaling cascades. […]

HeLa cells = experiment: Transient cotransfection with β-galactosidase reporter into HeLa cells; assay type: cell-based, human; conditions: 10^−8 M 4-OH-tamoxifen, Cre-ER(T2) as reference, range given jointly for HeLa and Pac2
Experimental: (§1) Results are shown as mean values of triplicate samples with standard deviation. (b) Transient cotransfection of a β-galactosidase reporter with a Cre-ER(T2), myrCasp8-ER(T2), or Casp9-ER(T2) expression plasmid into murine M5/N9 (black columns), human HeLa (grey columns) or zebrafish Pac2 (open columns) cells. 12 h following transfection, cells were cultured for 36 h with 4-OH-tamoxifen at 10^−8 M and the activity of β-galactosidase in cell lysates was determined. Values obtained from transfections of the Cre-ER(T2) vector were defined as reference. Results are shown as mean values of triplicate samples with standard deviation.
Transient transfections into M5/N9 and HeLa cells were performed with FuGene transfection reagent (Roche) following the manufacturer's instructions. Briefly, semiconfluent cultures in a 24-well plate were transfected in triplicate with 112 ng of the β-galactosidase expression vector CMVβ(Invitrogen) and the same amount of pCAG-Cre-ER(T2), pCAG-Casp8-ER(T2) or pCAG-Casp9-ER(T2) plasmid DNA. After 12 h 4-OH-tamoxifen was added at a concentration of 10^−8 M and the cultures were lysed at 48 h. Cell lysis and the measurement of β-galactosidase activity by chemiluminescence were performed with the β-galactosidase reporter gene assay (Roche) using a Centro LB960 plate luminometer (Berthold). […]

Pac2 cells = experiment: Transient cotransfection with β-galactosidase reporter into Pac2 cells; assay type: cell-based, zebrafish; conditions: 10^−8 M 4-OH-tamoxifen, Cre-ER(T2) as reference, range given jointly for HeLa and Pac2
Experimental: as §1
PAC2 zebrafish fibroblasts were grown in Leibowitz's L15—with L-Glutamine medium supplemented with 1% Non-essential Amino Acids, 1% Penicillin/Streptomycin and 10% fetal calf serum (all Gibco) at 28° C. 3×10^6 Cells were transiently transfected with the plasmids CMVβ together with CAG-CreER(T2), CAG-myrCasp8ER(T2) or CAG-Casp9ER(T2) (500 ng each) using nanofectin transfection reagent (PAA). 24 hrs after transfection the medium was replaced and conditioned with 10^−8 M 4-OH-tamoxifen. Before lysis, the cells were incubated for another 24 hrs at 28°. […]

B1: Casp9full-ER(T2): full length murine Caspase-9 fused to ER(T2) ligand binding domain, SEQ ID NO: 29 (protein)
chain: MDEADRQLLRRCRVRLVSELQVAELWDALLSRELFTRDMIEDIQQAGSGSRRDQARQLVTDLETRGRQALPLFISCLEDTGQGTLASLLQSGRQAAKQDPEAVKPLDHLVPVVLGPMGLTAKEQRVVKLDPSQPAVGNLTPVVLGPEELWPARLKPEVLRPETPRPVDIGSGGAHDVCVPGKIRGHADMAYTLDSDPCGHCLIINNVNFCPSSGLGTRTGSNLDRDKLEHRFRWLRFMVEVKNDLTAKKMVTALMEMAHRNHRALDCFVVVILSHGCQASHLQFPGAVYGTDGCSVSIEKIVNIFNGSGCPSLGGKPKLFFIQACGGEQKDHGFEVACTSSQGRTLDSDSEPDAVPYQEGPRPLDQLDAVSSLPTPSDILVSYSTFPGFVSWRDKKSGSWYIETLDGILEQWARSEDLQSLLLRVANAVSAKGTYKQIPGCFNFLRKKLFFKTSVEPSAGDMRAANLWPSPLMIKRSKKNSLALSLTADQMVSALLDAEPPILYSEYDPTRPFSEASMMGLLTNLADRELVHMINWAKRVPGFVDLTLHDQVHLLECAWLEILMIGLVWRSMEHPVKLLFAPNLLLDRNQGKCVEGMVEIFDMLLATSSRFRMMNLQGEEFVCLKSIILLNSGVYTFLSSTLKSLEEKDHIHRVLDKITDTLIHLMAKAGLTLQQQHQRLAQLLLILSHIRHMSNKGMEHLYSMKCKNVVPLYDLLLEAADAHRLHAPTSRGGASVEETDQSHLATAGSTSSHSLQKYYITGEAEGFPATA
modifications: fusion protein Casp9full-ER(T2)
- TUNEL result / apoptotic morphology (in words) (MEF5/N9 cells; 3 or 7 hours): typical apoptotic morphology
- incubation time with 4-OH-tamoxifen at which TUNEL positive cells were detected (MEF5/N9 cells; fixation at 2, 3, 5 and 7 hours): 3 h
- reduction of β-Galactosidase activity in presence of 4-OHT (HeLa cells): 91-93%
- reduction of β-Galactosidase activity in presence of 4-OHT (Pac2 cells): 91-93%
